Laboratory results: patent US20200164032A1 (WASHINGTON UNIVERSITY, published 2020)
Read-outs that look alike come from different tables or passages of the source.

What was measured:
murine CCL2 [1] = molecular target: T1, murine CCL2 (mouse, UniProt P10148 24-148)
murine CCL3 [2] = molecular target: T2, murine CCL3 (mouse, UniProt P10855 24-92)
T2 sequence: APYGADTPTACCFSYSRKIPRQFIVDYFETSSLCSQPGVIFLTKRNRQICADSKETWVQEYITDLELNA

human CCL2 = molecular target: T3, human CCL2 (human, UniProt P13500 24-99); assay: SPR, R17 on CM5 chip
T3 construct: also called hCCL2

murine CXCL10 = molecular target: T4, murine CXCL10 (mouse, UniProt P17515 22-98); assay: SPR, R17 on CM5 chip
T4 construct: also called mCXCL10
T4 sequence: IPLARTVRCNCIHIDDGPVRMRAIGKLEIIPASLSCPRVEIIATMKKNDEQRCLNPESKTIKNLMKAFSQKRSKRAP

murine IL-6 = molecular target: T5, murine IL-6 (mouse, UniProt P08505 25-211); assay: SPR, R17 on CM5 chip
T5 construct: also called mIL-6
T5 sequence: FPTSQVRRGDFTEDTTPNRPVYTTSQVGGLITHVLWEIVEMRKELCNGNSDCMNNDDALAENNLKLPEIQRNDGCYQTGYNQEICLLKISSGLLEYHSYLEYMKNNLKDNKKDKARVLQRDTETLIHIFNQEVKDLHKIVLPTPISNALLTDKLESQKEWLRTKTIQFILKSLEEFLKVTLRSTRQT

murine TNF-alpha = molecular target: T6, murine TNF-alpha (mouse, UniProt P06804 80-235); assay: SPR, R17 on CM5 chip
T6 construct: also called mTNF-alpha; TNF-α
T6 sequence: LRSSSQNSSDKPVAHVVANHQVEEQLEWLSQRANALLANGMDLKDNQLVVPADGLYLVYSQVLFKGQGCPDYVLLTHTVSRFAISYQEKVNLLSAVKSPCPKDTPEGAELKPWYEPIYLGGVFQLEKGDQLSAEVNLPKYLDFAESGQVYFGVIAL

[3] = molecular target: CCL2 (species not given); assay: SPR, R17 variant on CM5 chip; column kd x 10^-3 s-1
[4] = molecular target: CCL2 (species not given); assay: SPR, R17 variant on CM5 chip; column KD (nM), kinetic
[5] = molecular target: CCL2 (species not given); assay: SPR, R17 variant on CM5 chip; column ka x 10^6 M-1s-1
[6] = molecular target: CCL3 (species not given); assay: SPR, R17 variant on CM5 chip; column KDeq (nM); ka, kd, KD printed n/a
murine CCL2 [7] = molecular target: T1, murine CCL2; assay: SPR, R17 on CM5 chip; KD,eq from saturation binding, Scatchard analysis
murine CCL3 [8] = molecular target: T2, murine CCL3; assay: as above
murine CCL4 = molecular target: T7, murine CCL4 (mouse, UniProt P14097 24-92); assay: as above
T7 construct: also called mCCL4
T7 sequence: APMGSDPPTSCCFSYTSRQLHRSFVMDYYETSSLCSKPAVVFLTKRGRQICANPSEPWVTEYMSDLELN

murine CCL5 = molecular target: T8, murine CCL5 (mouse, UniProt P30882 24-91); assay: as above
T8 construct: also called mCCL5

human CCL5 = molecular target: T9, human CCL5 (human, UniProt P13501 24-91); assay: as above
T9 construct: also called hCCL5
T9 sequence: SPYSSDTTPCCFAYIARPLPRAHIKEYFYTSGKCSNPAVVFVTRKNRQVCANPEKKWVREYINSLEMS

murine CCL8 = molecular target: T10, murine CCL8 (mouse, UniProt Q9Z121 24-97); assay: as above
T10 construct: also called mCCL8
T10 sequence: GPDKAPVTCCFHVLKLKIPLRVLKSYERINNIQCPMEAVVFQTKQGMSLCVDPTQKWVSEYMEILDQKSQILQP

murine CCL20 = molecular target: T11, murine CCL20 (mouse, UniProt O89093 28-97); assay: as above
T11 construct: also called mCCL20
T11 sequence: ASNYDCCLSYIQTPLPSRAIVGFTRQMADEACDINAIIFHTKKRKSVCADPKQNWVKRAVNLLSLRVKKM

murine CCL24 = molecular target: T12, murine CCL24 (mouse, UniProt Q9JKC0 27-119); assay: as above
T12 construct: also called mCCL24
T12 sequence: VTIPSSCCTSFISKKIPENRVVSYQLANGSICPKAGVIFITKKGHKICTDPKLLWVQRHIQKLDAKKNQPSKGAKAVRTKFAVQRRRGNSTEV

murine CCL12 = molecular target: T13, murine CCL12 (mouse, UniProt Q62401 23-104); assay: as above
T13 construct: also called mCCL12
T13 sequence: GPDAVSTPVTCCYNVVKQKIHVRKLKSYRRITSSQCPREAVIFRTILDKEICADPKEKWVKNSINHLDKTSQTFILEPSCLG

[9] = molecular target: T14, murine XCL1 (lymphotactin) (mouse, UniProt P47993 22-114); assay: as above
T14 construct: also called mXCL1; lymphotactin (XCL1)
T14 sequence: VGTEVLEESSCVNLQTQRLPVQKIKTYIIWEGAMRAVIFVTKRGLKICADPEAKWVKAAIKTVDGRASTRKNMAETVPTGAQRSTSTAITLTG

CCL9 = molecular target: T15, CCL9 (UniProt P51670 22-122); assay: as above
T15 sequence: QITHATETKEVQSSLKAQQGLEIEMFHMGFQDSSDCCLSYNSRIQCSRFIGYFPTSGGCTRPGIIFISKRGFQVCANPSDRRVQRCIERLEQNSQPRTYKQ

T1 sequence (P10148 24-148 limits assumed): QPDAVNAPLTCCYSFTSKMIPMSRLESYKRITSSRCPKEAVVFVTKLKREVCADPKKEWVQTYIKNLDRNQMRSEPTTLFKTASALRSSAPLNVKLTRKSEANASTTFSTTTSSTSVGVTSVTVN
T3 sequence (P13500 24-99 limits assumed): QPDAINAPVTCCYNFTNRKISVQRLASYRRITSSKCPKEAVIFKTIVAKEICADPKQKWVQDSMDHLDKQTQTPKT
T8 sequence (P30882 24-91 limits assumed): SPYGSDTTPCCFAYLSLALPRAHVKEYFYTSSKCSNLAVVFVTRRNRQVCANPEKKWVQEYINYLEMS

B1: R17 chemokine decoy receptor of Rodent herpesvirus Peru (RHVP), wild type, C-terminal 8-His fusion (receptor)
chain: GPVGEPVASEINEASKVSSRLLTQDILFRKDRQATISLPIKLPVEDIITQTCDKITYGPLKFLDLLEKETAVLPLSTDITCPACLGRAVLVGKWECPAHVAVNESDLTVFGPNKEEHVPQFVTVQQPSDGKMQRLFFAKFLGTEESLAVLRVPGPDGHLCIQEALIHFKELSGAGVCSLWKANDSREEGLEMKQVDCLETTVLENQTCIATTLSKKIYHRLYCGERLMTGGQVSTRVLLTALGFYKRQPYTFHRVPKGMVYVHLIDSGSEDYMEYSECEEVTPGRYEDKQISYTFYTDLFQTADGEPVLASVWGTSGLKDSAYESCAFVIPTKGRRKLVPRRIMSKCYPFRLTYHPSTMTVRLDVRVEKHHGATDQGFVFLKMESGTYSEGREYYLDRVLWGEDSSTNNVLQ
notes: not shown: C-terminal 8-His tag
Murine CCL2 [1]
  Kd: 12 nM
Murine CCL3 [2]
  Kd: 1.4 nM
Human CCL2
  complex half-life (t1/2): 2.1 s
Murine CXCL10
  binding result: no binding
Murine IL-6
  binding result: no binding
Murine TNF-alpha
  binding result: no binding
[3]
  koff: 0.02 s⁻¹
[4]
  Kd: 6.7 nM
[5]
  kon: 2e+06 M⁻¹ s⁻¹
[6]
  Kd: 0.4 nM
Murine CCL2 [7]
  Kd: 10 nM
Murine CCL3 [8]
  Kd: 0.4 nM
Murine CCL4
  Kd: 0.8 nM
Murine CCL5
  Kd: 0.1 nM
Human CCL5
  Kd: 0.9 nM
Murine CCL8
  Kd: 80 nM
Murine CCL20
  Kd: 3.4 nM
Murine CCL24
  Kd: 2.2 nM
Murine CCL12
  Kd: 1.3 nM
[9]
  Kd: 4.2 nM
CCL9
  Kd: 1.3 nM
